Read-outs that look alike come from different tables or passages of the source.
Columns and labels:
[1] = molecular target: PtuA (Escherichia coli Septu system) (Escherichia coli (strain ATCC 25922)); assay: cryo-EM structure
[2] = molecular target: PtuA (Escherichia coli Septu system) (Escherichia coli (strain ATCC 25922)); assay: cryo-EM structure; remark: listed apart in the source
[3] = molecular target: PtuA L81R mutant (Escherichia coli (strain ATCC 25922)); assay: mass photometry

Row | stoichiometry N [1] | stoichiometry N [2] | stoichiometry N [3] | Substance
1 | 6 | 6 |  | PtuA (Escherichia coli Septu system) (natural protein)
2 |  |  | 2 | PtuA L81R mutant (natural protein)

From publication PMC12318543
